Patent US20240368675

System: T1, Gs12-10 (uncultured bacterium (metagenome)?)
T1 sequence: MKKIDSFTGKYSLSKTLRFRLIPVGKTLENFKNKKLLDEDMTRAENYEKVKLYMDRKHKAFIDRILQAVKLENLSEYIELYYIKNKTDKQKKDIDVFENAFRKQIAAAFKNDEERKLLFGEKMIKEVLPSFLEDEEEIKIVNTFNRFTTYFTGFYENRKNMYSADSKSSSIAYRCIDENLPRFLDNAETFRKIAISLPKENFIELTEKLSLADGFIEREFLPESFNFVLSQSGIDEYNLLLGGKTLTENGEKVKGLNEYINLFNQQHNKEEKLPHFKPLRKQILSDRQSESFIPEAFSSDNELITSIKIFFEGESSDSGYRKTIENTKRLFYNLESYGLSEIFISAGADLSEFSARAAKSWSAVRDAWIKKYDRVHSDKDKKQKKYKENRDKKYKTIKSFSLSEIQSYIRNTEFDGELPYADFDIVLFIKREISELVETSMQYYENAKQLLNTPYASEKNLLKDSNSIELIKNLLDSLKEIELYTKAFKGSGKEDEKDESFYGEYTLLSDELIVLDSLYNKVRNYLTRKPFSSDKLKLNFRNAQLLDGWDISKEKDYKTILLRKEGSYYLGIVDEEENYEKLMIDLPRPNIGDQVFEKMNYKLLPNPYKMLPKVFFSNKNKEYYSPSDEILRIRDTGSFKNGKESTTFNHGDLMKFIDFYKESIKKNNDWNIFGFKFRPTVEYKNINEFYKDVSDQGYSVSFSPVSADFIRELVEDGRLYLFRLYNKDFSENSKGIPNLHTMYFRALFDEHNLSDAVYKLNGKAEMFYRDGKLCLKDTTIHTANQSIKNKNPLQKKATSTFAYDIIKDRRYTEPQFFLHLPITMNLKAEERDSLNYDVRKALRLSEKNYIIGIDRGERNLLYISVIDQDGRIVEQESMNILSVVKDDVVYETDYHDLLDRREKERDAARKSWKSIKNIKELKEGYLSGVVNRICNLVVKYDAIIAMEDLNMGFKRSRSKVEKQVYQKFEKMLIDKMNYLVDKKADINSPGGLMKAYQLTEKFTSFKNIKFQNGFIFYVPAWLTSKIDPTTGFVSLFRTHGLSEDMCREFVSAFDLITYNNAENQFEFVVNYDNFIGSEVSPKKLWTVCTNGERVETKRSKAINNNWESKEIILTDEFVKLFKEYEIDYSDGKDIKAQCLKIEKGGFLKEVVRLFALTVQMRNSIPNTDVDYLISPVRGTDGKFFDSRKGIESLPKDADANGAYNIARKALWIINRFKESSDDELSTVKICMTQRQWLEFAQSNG
Assay: cleavage_in_vitro
Conditions: PAM ATTT; CutSmart buffer, 37 C, 2 h

## crRNA-ATTT pUC19 ; pUC19 circular plasmid
  activity: 100 % linearised
